This note sets out measurements from patent publication US20260001928A1 (CORTERIA PHARMACEUTICALS, priority 2022, published 2026).

Assay [1] addresses human corticotropin-releasing factor 2a (CRF2a receptor) (human), Q13324. In words: cell-based or functional assay.
In a further assay the target is T1, CRF1R receptor (UniProt P34998 24-415, limits assumed).
T1 sequence (looked up): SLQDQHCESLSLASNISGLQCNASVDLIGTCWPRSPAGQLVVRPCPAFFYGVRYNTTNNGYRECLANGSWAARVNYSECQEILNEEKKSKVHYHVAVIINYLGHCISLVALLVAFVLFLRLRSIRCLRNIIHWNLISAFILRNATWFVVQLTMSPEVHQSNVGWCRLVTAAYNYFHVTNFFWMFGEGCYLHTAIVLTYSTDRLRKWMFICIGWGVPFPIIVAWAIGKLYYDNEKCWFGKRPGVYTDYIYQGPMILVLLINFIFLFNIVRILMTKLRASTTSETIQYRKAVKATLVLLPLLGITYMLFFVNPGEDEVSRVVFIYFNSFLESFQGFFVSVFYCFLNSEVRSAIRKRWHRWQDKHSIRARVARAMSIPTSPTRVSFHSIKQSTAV
Briefly: cell-based or functional assay.

*1 amine or outer side, *2 acyl side, *3 side chain or, on linkers, in order; H or OH if unused. Side-chain parts run from the residue outwards. [ ]: non-standard residue; d: D form. The star is where a group is joined. C16 diacid = O=C(O)CCCCCCCCCCCCCCC(=O)*; γGlu = O=C(O)[C@H](CCC(=O)[*:2])N[*:1]; C14 diacid = O=C(O)CCCCCCCCCCCCC(=O)*; Api = NC1(C(=O)O)CCNCC1; AEEA = NCCOCCOCC(=O)O; Aib = CC(C)(N)C(=O)O

Sequence of human corticotropin-releasing factor 2a (CRF2a receptor) (human), Q13324 (Q13324 20-411): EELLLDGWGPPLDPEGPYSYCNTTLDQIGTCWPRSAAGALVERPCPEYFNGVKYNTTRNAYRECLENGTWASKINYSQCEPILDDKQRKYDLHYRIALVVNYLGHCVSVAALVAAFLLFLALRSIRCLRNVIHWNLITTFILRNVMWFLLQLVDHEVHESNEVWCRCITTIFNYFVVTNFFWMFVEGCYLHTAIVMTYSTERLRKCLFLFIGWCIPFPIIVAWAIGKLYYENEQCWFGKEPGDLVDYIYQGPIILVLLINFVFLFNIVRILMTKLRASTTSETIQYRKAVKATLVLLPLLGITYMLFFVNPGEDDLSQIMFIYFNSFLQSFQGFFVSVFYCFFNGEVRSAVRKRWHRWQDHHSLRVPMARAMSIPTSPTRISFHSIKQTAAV

B1: SEQ ID NO 168 (peptide)
peptide: Ac-IVLSLD[dV]PIKLK([γGlu-C16 diacid])KILLEQEKQKEQREQAETN[Aib]QILAQV-NH2
SMILES: CC[C@H](C)[C@H](NC(C)=O)C(=O)N[C@H](C(=O)N[C@@H](CC(C)C)C(=O)N[C@@H](CO)C(=O)N[C@@H](CC(C)C)C(=O)N[C@@H](CC(=O)O)C(=O)N[C@@H](C(=O)N1CCC[C@H]1C(=O)N[C@H](C(=O)N[C@@H](CCCCN)C(=O)N[C@@H](CC(C)C)C(=O)N[C@@H](CCCCNC(=O)CC[C@H](NC(=O)CCCCCCCCCCCCCCC(=O)O)C(=O)O)C(=O)N[C@@H](CCCCN)C(=O)N[C@H](C(=O)N[C@@H](CC(C)C)C(=O)N[C@@H](CC(C)C)C(=O)N[C@@H](CCC(=O)O)C(=O)N[C@@H](CCC(N)=O)C(=O)N[C@@H](CCC(=O)O)C(=O)N[C@@H](CCCCN)C(=O)N[C@@H](CCC(N)=O)C(=O)N[C@@H](CCCCN)C(=O)N[C@@H](CCC(=O)O)C(=O)N[C@@H](CCC(N)=O)C(=O)N[C@@H](CCCNC(=N)N)C(=O)N[C@@H](CCC(=O)O)C(=O)N[C@@H](CCC(N)=O)C(=O)N[C@@H](C)C(=O)N[C@@H](CCC(=O)O)C(=O)N[C@H](C(=O)N[C@@H](CC(N)=O)C(=O)NC(C)(C)C(=O)N[C@@H](CCC(N)=O)C(=O)N[C@H](C(=O)N[C@@H](CC(C)C)C(=O)N[C@@H](C)C(=O)N[C@@H](CCC(N)=O)C(=O)N[C@H](C(N)=O)C(C)C)[C@@H](C)CC)[C@@H](C)O)[C@@H](C)CC)[C@@H](C)CC)C(C)C)C(C)C
For B1, in assay [1], the EC50 [nM] (cAMP) was 0.8 nM. In addition, the “Emax (% I)” value with CRF1R receptor was determined as 3%.

B2: SEQ ID NO 167 (peptide)
peptide: Ac-IVLSLD[dV]PIKLK([γGlu-C16 diacid])KILLEQEKQKKQAEQAETN[Aib]QILAQV-NH2
SMILES: CC[C@H](C)[C@H](NC(C)=O)C(=O)N[C@H](C(=O)N[C@@H](CC(C)C)C(=O)N[C@@H](CO)C(=O)N[C@@H](CC(C)C)C(=O)N[C@@H](CC(=O)O)C(=O)N[C@@H](C(=O)N1CCC[C@H]1C(=O)N[C@H](C(=O)N[C@@H](CCCCN)C(=O)N[C@@H](CC(C)C)C(=O)N[C@@H](CCCCNC(=O)CC[C@H](NC(=O)CCCCCCCCCCCCCCC(=O)O)C(=O)O)C(=O)N[C@@H](CCCCN)C(=O)N[C@H](C(=O)N[C@@H](CC(C)C)C(=O)N[C@@H](CC(C)C)C(=O)N[C@@H](CCC(=O)O)C(=O)N[C@@H](CCC(N)=O)C(=O)N[C@@H](CCC(=O)O)C(=O)N[C@@H](CCCCN)C(=O)N[C@@H](CCC(N)=O)C(=O)N[C@@H](CCCCN)C(=O)N[C@@H](CCCCN)C(=O)N[C@@H](CCC(N)=O)C(=O)N[C@@H](C)C(=O)N[C@@H](CCC(=O)O)C(=O)N[C@@H](CCC(N)=O)C(=O)N[C@@H](C)C(=O)N[C@@H](CCC(=O)O)C(=O)N[C@H](C(=O)N[C@@H](CC(N)=O)C(=O)NC(C)(C)C(=O)N[C@@H](CCC(N)=O)C(=O)N[C@H](C(=O)N[C@@H](CC(C)C)C(=O)N[C@@H](C)C(=O)N[C@@H](CCC(N)=O)C(=O)N[C@H](C(N)=O)C(C)C)[C@@H](C)CC)[C@@H](C)O)[C@@H](C)CC)[C@@H](C)CC)C(C)C)C(C)C
On to B2, for which the EC50 [nM] (cAMP) in assay [1] was 1.15 nM. For the same molecule, in the assay with CRF1R receptor, the “Emax (% I)” value amounted to 7%.

B3: SEQ ID NO 169 (peptide)
peptide: Ac-IVLSLD[dV]PIKLK([γGlu-C14 diacid])KILLEQEKQKAQREQAETN[Api]QILAQV-NH2
SMILES: CC[C@H](C)[C@H](NC(C)=O)C(=O)N[C@H](C(=O)N[C@@H](CC(C)C)C(=O)N[C@@H](CO)C(=O)N[C@@H](CC(C)C)C(=O)N[C@@H](CC(=O)O)C(=O)N[C@@H](C(=O)N1CCC[C@H]1C(=O)N[C@H](C(=O)N[C@@H](CCCCN)C(=O)N[C@@H](CC(C)C)C(=O)N[C@@H](CCCCNC(=O)CC[C@H](NC(=O)CCCCCCCCCCCCC(=O)O)C(=O)O)C(=O)N[C@@H](CCCCN)C(=O)N[C@H](C(=O)N[C@@H](CC(C)C)C(=O)N[C@@H](CC(C)C)C(=O)N[C@@H](CCC(=O)O)C(=O)N[C@@H](CCC(N)=O)C(=O)N[C@@H](CCC(=O)O)C(=O)N[C@@H](CCCCN)C(=O)N[C@@H](CCC(N)=O)C(=O)N[C@@H](CCCCN)C(=O)N[C@@H](C)C(=O)N[C@@H](CCC(N)=O)C(=O)N[C@@H](CCCNC(=N)N)C(=O)N[C@@H](CCC(=O)O)C(=O)N[C@@H](CCC(N)=O)C(=O)N[C@@H](C)C(=O)N[C@@H](CCC(=O)O)C(=O)N[C@H](C(=O)N[C@@H](CC(N)=O)C(=O)NC1(C(=O)N[C@@H](CCC(N)=O)C(=O)N[C@H](C(=O)N[C@@H](CC(C)C)C(=O)N[C@@H](C)C(=O)N[C@@H](CCC(N)=O)C(=O)N[C@H](C(N)=O)C(C)C)[C@@H](C)CC)CCNCC1)[C@@H](C)O)[C@@H](C)CC)[C@@H](C)CC)C(C)C)C(C)C
For the molecule B3, the EC50 [nM] (cAMP) in assay [1] is 1.34 nM. Also, in the assay with CRF1R receptor, the “Emax (% I)” value stood at 13%.

B4: SEQ ID NO 170 (peptide)
peptide: Ac-IVLSLD[dV]PIKLK([γGlu-C14 diacid])KILLEQEKQK[Aib]QREQAETN[Api]QILAQV-NH2
SMILES: CC[C@H](C)[C@H](NC(C)=O)C(=O)N[C@H](C(=O)N[C@@H](CC(C)C)C(=O)N[C@@H](CO)C(=O)N[C@@H](CC(C)C)C(=O)N[C@@H](CC(=O)O)C(=O)N[C@@H](C(=O)N1CCC[C@H]1C(=O)N[C@H](C(=O)N[C@@H](CCCCN)C(=O)N[C@@H](CC(C)C)C(=O)N[C@@H](CCCCNC(=O)CC[C@H](NC(=O)CCCCCCCCCCCCC(=O)O)C(=O)O)C(=O)N[C@@H](CCCCN)C(=O)N[C@H](C(=O)N[C@@H](CC(C)C)C(=O)N[C@@H](CC(C)C)C(=O)N[C@@H](CCC(=O)O)C(=O)N[C@@H](CCC(N)=O)C(=O)N[C@@H](CCC(=O)O)C(=O)N[C@@H](CCCCN)C(=O)N[C@@H](CCC(N)=O)C(=O)N[C@@H](CCCCN)C(=O)NC(C)(C)C(=O)N[C@@H](CCC(N)=O)C(=O)N[C@@H](CCCNC(=N)N)C(=O)N[C@@H](CCC(=O)O)C(=O)N[C@@H](CCC(N)=O)C(=O)N[C@@H](C)C(=O)N[C@@H](CCC(=O)O)C(=O)N[C@H](C(=O)N[C@@H](CC(N)=O)C(=O)NC1(C(=O)N[C@@H](CCC(N)=O)C(=O)N[C@H](C(=O)N[C@@H](CC(C)C)C(=O)N[C@@H](C)C(=O)N[C@@H](CCC(N)=O)C(=O)N[C@H](C(N)=O)C(C)C)[C@@H](C)CC)CCNCC1)[C@@H](C)O)[C@@H](C)CC)[C@@H](C)CC)C(C)C)C(C)C
B4: in assay [1], the EC50 [nM] (cAMP) was determined as 1.28 nM. For the same molecule, the “Emax (% I)” value with CRF1R receptor was 5%.

B5: SEQ ID NO 171 (peptide)
peptide: Ac-IVLSLD[dV]PIKLK([AEEA-AEEA-γGlu-C14 diacid])KILLEQEKQKKQREQAETN[Aib]QILAQV-NH2
SMILES: CC[C@H](C)[C@H](NC(C)=O)C(=O)N[C@H](C(=O)N[C@@H](CC(C)C)C(=O)N[C@@H](CO)C(=O)N[C@@H](CC(C)C)C(=O)N[C@@H](CC(=O)O)C(=O)N[C@@H](C(=O)N1CCC[C@H]1C(=O)N[C@H](C(=O)N[C@@H](CCCCN)C(=O)N[C@@H](CC(C)C)C(=O)N[C@@H](CCCCNC(=O)COCCOCCNC(=O)COCCOCCNC(=O)CC[C@H](NC(=O)CCCCCCCCCCCCC(=O)O)C(=O)O)C(=O)N[C@@H](CCCCN)C(=O)N[C@H](C(=O)N[C@@H](CC(C)C)C(=O)N[C@@H](CC(C)C)C(=O)N[C@@H](CCC(=O)O)C(=O)N[C@@H](CCC(N)=O)C(=O)N[C@@H](CCC(=O)O)C(=O)N[C@@H](CCCCN)C(=O)N[C@@H](CCC(N)=O)C(=O)N[C@@H](CCCCN)C(=O)N[C@@H](CCCCN)C(=O)N[C@@H](CCC(N)=O)C(=O)N[C@@H](CCCNC(=N)N)C(=O)N[C@@H](CCC(=O)O)C(=O)N[C@@H](CCC(N)=O)C(=O)N[C@@H](C)C(=O)N[C@@H](CCC(=O)O)C(=O)N[C@H](C(=O)N[C@@H](CC(N)=O)C(=O)NC(C)(C)C(=O)N[C@@H](CCC(N)=O)C(=O)N[C@H](C(=O)N[C@@H](CC(C)C)C(=O)N[C@@H](C)C(=O)N[C@@H](CCC(N)=O)C(=O)N[C@H](C(N)=O)C(C)C)[C@@H](C)CC)[C@@H](C)O)[C@@H](C)CC)[C@@H](C)CC)C(C)C)C(C)C
On to B5, for which the EC50 [nM] (cAMP) in assay [1] is 5.79 nM. Besides, in the assay with CRF1R receptor, the “Emax (% I)” value came to 0%.

B6: SEQ ID NO 172 (peptide)
peptide: Ac-IVLSLD[dV]PIKLK([AEEA-AEEA-γGlu-C14 diacid])KILLEQEKQKKQREQAETN[Api]QILAQV-NH2
SMILES: CC[C@H](C)[C@H](NC(C)=O)C(=O)N[C@H](C(=O)N[C@@H](CC(C)C)C(=O)N[C@@H](CO)C(=O)N[C@@H](CC(C)C)C(=O)N[C@@H](CC(=O)O)C(=O)N[C@@H](C(=O)N1CCC[C@H]1C(=O)N[C@H](C(=O)N[C@@H](CCCCN)C(=O)N[C@@H](CC(C)C)C(=O)N[C@@H](CCCCNC(=O)COCCOCCNC(=O)COCCOCCNC(=O)CC[C@H](NC(=O)CCCCCCCCCCCCC(=O)O)C(=O)O)C(=O)N[C@@H](CCCCN)C(=O)N[C@H](C(=O)N[C@@H](CC(C)C)C(=O)N[C@@H](CC(C)C)C(=O)N[C@@H](CCC(=O)O)C(=O)N[C@@H](CCC(N)=O)C(=O)N[C@@H](CCC(=O)O)C(=O)N[C@@H](CCCCN)C(=O)N[C@@H](CCC(N)=O)C(=O)N[C@@H](CCCCN)C(=O)N[C@@H](CCCCN)C(=O)N[C@@H](CCC(N)=O)C(=O)N[C@@H](CCCNC(=N)N)C(=O)N[C@@H](CCC(=O)O)C(=O)N[C@@H](CCC(N)=O)C(=O)N[C@@H](C)C(=O)N[C@@H](CCC(=O)O)C(=O)N[C@H](C(=O)N[C@@H](CC(N)=O)C(=O)NC1(C(=O)N[C@@H](CCC(N)=O)C(=O)N[C@H](C(=O)N[C@@H](CC(C)C)C(=O)N[C@@H](C)C(=O)N[C@@H](CCC(N)=O)C(=O)N[C@H](C(N)=O)C(C)C)[C@@H](C)CC)CCNCC1)[C@@H](C)O)[C@@H](C)CC)[C@@H](C)CC)C(C)C)C(C)C
As to B6, the EC50 [nM] (cAMP) in assay [1] was 16.1 nM. The “Emax (% I)” value with CRF1R receptor was -6%.
